Data from paper PMC5980995, “An allostatic mechanism for M2 pyruvate kinase as an amino-acid sensor” (Biochemical Journal, 2018).

Target: the molecule itself
Experiment: cell-based or functional assay

B1: M2 isoenzyme of pyruvate kinase (M2PYK), human, N-terminal His6 tag (enzyme)
chain: not shown
half-life of the loss of enzyme activity (LDH-coupled assay) after dilution from 20 mg/ml to 0.002 mg/ml in PBS-CM pH 7.4, taken as dissociation of the tetramer: ~15 min
